Source: patent US20180346604A1

What was measured:
[1] = target: Biotin-GCN4 peptide (yeast); experiment: SPR (Biacore 3000), Biotin-GCN4 peptide captured on immobilised streptavidin, Fab-scFv injected, 1:1 binding model
[2] = target: Biotin-GCN4 peptide (yeast); experiment: SPR, Biacore 3000, 25 C; biotin-GCN4 peptide captured on streptavidin CM5 chip, Fab-scFv as analyte from 30 nM, 1:1 model

- koff [1]: 0.00027 s⁻¹
- kon [1]: 510000 M⁻¹ s⁻¹
- Kd [2]: 0.516 nM
B1: Fab-scFv (anti-GCN4 52SR4 scFv fused to a Fab, generated in-house) (Fab, part only; not given: carrier Fab and its linker, not shown: another chain or arm of the molecule; large carriers; small tags and cut ends)
scFv: DAVVTQESALTSSPGETVTLTCRSSTGAVTTSNYASWVQEKPDHLFTGLIGGTNNRAPGVPARFSGSLIGDKAALTITGAQTEDEAIYFCVLWYSDHWVFGCGTKLTVLGGGGGSGGGGSGGGGSGGGGSDVQLQQSGPGLVAPSQSLSITCTVSGFLLTDYGVNWVRQSPGKCLEWLGVIWGDGITDYNSALKSRLSVTKDNSKSQVFLKMNSLQSGDSARYYCVTGLFDYWGQGTTLTVSSAAAHHHHHHEQKLISEEDL
